For experiment [1], the target named is T1, human ANGPTL8 expressed with C-terminal mouse IgG2a Fc tag (hANGPTL8-mFc; SEQ ID NO: 340) (human).
T1 construct: also called Angiopoietin-like protein 8
T1 chain: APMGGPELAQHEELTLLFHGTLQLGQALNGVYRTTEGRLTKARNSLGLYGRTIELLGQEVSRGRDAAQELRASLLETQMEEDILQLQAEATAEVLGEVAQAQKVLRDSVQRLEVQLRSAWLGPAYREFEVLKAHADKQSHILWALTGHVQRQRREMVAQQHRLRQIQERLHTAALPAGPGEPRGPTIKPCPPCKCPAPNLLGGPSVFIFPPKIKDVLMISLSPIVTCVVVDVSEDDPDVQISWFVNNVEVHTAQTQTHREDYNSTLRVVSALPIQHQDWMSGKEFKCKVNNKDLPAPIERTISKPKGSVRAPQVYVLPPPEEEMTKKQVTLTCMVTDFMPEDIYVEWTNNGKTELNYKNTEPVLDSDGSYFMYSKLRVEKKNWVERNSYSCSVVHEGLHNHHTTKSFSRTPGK
The experiment can be described thus: BLI Octet, captured antigen, 100 nM mAb, 25C.

Experiment [2] concerns the target T2, anti-mFc (AMC) Octet biosensor, blank.
T2 construct: Sensor without captured protein, used as blank; also called Blank AMC Sensor
The experiment can be described thus: BLI Octet, blank AMC sensor, 100 nM mAb, 25C. An outline of the steps:
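Antigen-mFc (human or cynomolgus ANGPTL8; hLDLR-mFc as negative control; one blank sensor) captured to ~1.6 nm from 10 μg/mL over 4 min. Sensors dipped 4 min in 100 nM mAb or isotype control at 25° C. Buffer: 10 mM HEPES pH 7.4, 150 mM NaCl, 0.05% Tween-20, 1 mg/ml BSA, shaken at 1000 rpm.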

Experiment [3] concerns the target T1, human ANGPTL8 expressed with C-terminal …. The experiment in a line: BLI Octet, captured antigen, 100 nM mAb, 25C.
In experiment [4] the target is T3, monkey ANGPTL8 expressed with C-terminal mouse IgG2a Fc tag (MfANGPTL8-mFc; SEQ ID NO: 341) (cynomolgus monkey).
T3 construct: also called cynomolgus monkey ANGPTL8
T3 chain: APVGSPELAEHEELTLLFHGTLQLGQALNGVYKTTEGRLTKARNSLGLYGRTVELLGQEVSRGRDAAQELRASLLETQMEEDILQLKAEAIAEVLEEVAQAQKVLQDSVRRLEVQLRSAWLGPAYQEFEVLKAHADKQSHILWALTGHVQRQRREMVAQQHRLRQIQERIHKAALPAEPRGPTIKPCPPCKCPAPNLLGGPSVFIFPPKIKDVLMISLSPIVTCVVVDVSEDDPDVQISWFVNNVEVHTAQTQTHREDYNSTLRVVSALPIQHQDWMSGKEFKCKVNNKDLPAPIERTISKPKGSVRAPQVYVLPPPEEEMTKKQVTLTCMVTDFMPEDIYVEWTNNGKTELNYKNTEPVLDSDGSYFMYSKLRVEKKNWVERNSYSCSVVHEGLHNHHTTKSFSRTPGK
The experiment can be described thus: BLI Octet, captured antigen, 100 nM mAb, 25C.

The target of experiment [5] is T4, peptide from the N-terminal coiled-coil region of human ANGPTL4 (hANGPTL4 peptide, SEQ ID NO: 339) (human).
T4 peptide: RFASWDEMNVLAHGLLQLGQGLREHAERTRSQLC
The experiment can be described thus: SPR, captured mAb, 500 nM peptide, 25C.

For experiment [6], the target named is T5, peptide from the N-terminal coiled-coil region of human ANGPTL3 (hANGPTL3 peptide, SEQ ID NO: 338) (human).
T5 construct: also called hANGPTL3 shift peptide
T5 peptide: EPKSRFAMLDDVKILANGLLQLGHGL
The experiment in a line: SPR, captured mAb, 500 nM peptide, 25C.

Experiment [7] concerns the target T6, human ANGPTL8 peptide (hANGPTL8 peptide, SEQ ID NO: 337) (human).
T6 construct: also called N-terminal region ANGPTL8 peptide
T6 peptide: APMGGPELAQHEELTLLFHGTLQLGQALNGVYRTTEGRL
The experiment in a line: SPR, captured mAb, 500 nM peptide, 25C.

Experiment [8] concerns the target T1, human ANGPTL8 expressed with C-terminal …. The experiment can be described thus: SPR MASS-1, antigen-mFc captured, mAb injected, 25C; no dissociation seen, kd fixed at the detection limit. Here is the method: (§1) All binding studies were performed in 10 mM HEPES pH 7.4, 150 mM NaCl, 3 mM EDTA, and 0.05% v/v Surfactant Tween-20 (HBS-ET running buffer) at 25° C. The HCA sensor surface was first derivatized by amine coupling goat anti-mouse IgG2a polyclonal antibody (Southern Biotech, #1080-01) onto which was then captured approximately 30 RU ([…]) of human ANGPTL8 expressed with C-terminal mouse IgG2a Fc tag (hANGPTL8-mFc; SEQ ID NO: 340) or monkey ANGPTL8 expressed with C-terminal mouse IgG2a Fc tag (MfANGPTL8-mFc; SEQ ID NO: 341).
(§2) Kinetic association (kₐ) and dissociation (kd) rate constants were determined by fitting the real-time binding sensorgrams to a 1:1 binding model with mass transport limitation using Scrubber 2.0c curve-fitting software. Binding dissociation equilibrium constants (KD) and dissociative half-lives (t½) were calculated from the kinetic rate constants as: […]
(§3) To obtain an estimate of the binding affinity the dissociation rate constant, kd, was fixed at the upper detection limit under the experimental conditions, 1.0E-05 1/s.

Experiment [9] concerns the target T3, monkey ANGPTL8 expressed with …. The experiment is described as above. The procedure: as §1, §2, §3
The target in experiment [10] is T1, human ANGPTL8 expressed with C-terminal …. The experiment in a line: SPR MASS-1, antigen-mFc captured, mAb injected, 25C. Here is the method:
as §1, §2

In experiment [11] the target is T3, monkey ANGPTL8 expressed with …. The experiment is described as above. Here is the method: as §1, §2

B1: H4H15316P (antibody, human IgG4, V domains shown)
VH: EVQLVESGGGLVQPGRSLRLSCAASGFIFDDYDMHWVRQAPGKGLEWVSGISWNSGSKGYADSVKGRFTISRDNAKNSLYLQMNSLRAEDTALYYCTKGPWDYFDYWGQGTLVTVSS
VL: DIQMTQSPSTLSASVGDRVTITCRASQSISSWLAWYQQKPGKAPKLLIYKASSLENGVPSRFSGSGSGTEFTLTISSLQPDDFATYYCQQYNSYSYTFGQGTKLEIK
notes: H4H prefix: human IgG4 Fc
With B1, the binding result is given as “no binding (tested: 100 nM mAb; background 0.03 nm)” in experiment [1], “no binding (tested: <9 RU at 500 nM peptide)” in [5], “no binding (tested: <9 RU at 500 nM peptide)” in [6] and “no binding (tested: <9 RU at 500 nM peptide)” in experiment [7]. For the same molecule, the “mAb Binding Response (nm)” value in experiment [2] was 0.02 nm; in experiment [3], 0.03 nm; in [4] it was 0.02 nm. In experiment [5], the “500 nM hAngPTL4 peptide Bound (RU)” value amounted to 0 RU. Moreover, in experiment [6], the “500 nM hANGPTL3 peptide Bound (RU)” value stood at 0 RU. For the same molecule, in [7], the “500 nM hANGPTL8 peptide Bound (RU)” value was found to be 0 RU.

B2: H4H15341P (antibody, human IgG4, V domains shown)
VH: EVQLVESGGGLVQPGGSLRLSCAASGFTFNNHEMNWVRQAPGKGLEWVSYISSSGNTVTYADFLKGRFTISRDNAKNSLFLQMNSLRDEDTAVYYCARDHLSGTSPLSYWGQGTLVTVSS
VL: DIQMTQSPSSLSASVGDRVTITCQASQDINNYLNWFQQKPGKAPKLLIFDASNLETGVPSRFSGSGSGTDFTFTISSLQPEDIATYFCQQYENLPYTFGQGTKLEIK
notes: H4H prefix: human IgG4 Fc
In the case of B2, the figures for the “mAb Binding Response (nm)” value in [2], in [3] and in experiment [4] were 0.03 nm, 0.12 nm and 0.1 nm, respectively. In addition, the koff in [8] and in [9] was at most 1e-05 s⁻¹ in each case. The equilibrium dissociation constant (Kd) is at most 117 pM in experiment [10] and at most 86 pM in experiment [11]. Moreover, the kon in experiment [10] worked out at 85000 M⁻¹ s⁻¹; in [11] it was 116000 M⁻¹ s⁻¹. The t½ in experiment [10] and in experiment [11] was at least 19.2 h throughout. Besides, the “500 nM hAngPTL4 peptide Bound (RU)” value in experiment [5] was 0 RU. Besides, the binding result in [5], in [6] and in [7] was “no binding (tested: <9 RU at 500 nM peptide)” each time. The “500 nM hANGPTL3 peptide Bound (RU)” value in experiment [6] was 0 RU. Besides, the “500 nM hANGPTL8 peptide Bound (RU)” value in [7] was found to be 0 RU.
